Results from patent US20160347808A1 (IMMATICS BIOTECHNOLOGIES, published 2016).

The binders below were run against T1, HLA-A*02:01 (peptide-receptive MHC class I monomer from UV-ligand exchange) (human) (assay: UV-exchange ELISA (anti-b2m); exchange yield grade: + >=10%, ++ >=20%, +++ >=50%, ++++ >=75%).
T1 construct: Monomers were captured on streptavidin-coated plates
Source text: Candidate peptides for T cell based therapies according to the present invention were further tested for their MHC binding capacity (affinity). The individual peptide-MHC complexes were produced by UV-ligand exchange, where a UV-sensitive peptide is cleaved upon UV-irradiation, and exchanged with the peptide of interest as analyzed. Only peptide candidates that can effectively bind and stabilize the peptide-receptive MHC molecules prevent dissociation of the MHC complexes. To determine the yield of the exchange reaction, an ELISA was performed based on the detection of the light chain (β2m) of stabilized MHC complexes. The assay was performed as generally described in Rodenko et al. (Rodenko et al., 2006).
96 well MAXISorp plates (NUNC) were coated over night with 2 ug/ml streptavidin in PBS at room temperature, washed 4× and blocked for 1 h at 37° C. in 2% BSA containing blocking buffer. Refolded HLA-A*02:01/MLA-001 monomers served as standards, covering the range of 15-500 ng/ml. Peptide-MHC monomers of the UV-exchange reaction were diluted 100 fold in blocking buffer. Samples were incubated for 1 h at 37° C., washed four times, incubated with 2 ug/ml HRP conjugated anti-β2m for 1 h at 37° C., washed again and detected with TMB solution that is stopped with […]. Absorption was measured at 450 nm. Candidate peptides that show a high exchange yield (preferably higher than 50%, most preferred higher than 75%) are generally preferred for a generation and production of antibodies or fragments thereof, and/or T cell receptors or fragments thereof, as they show sufficient avidity to the MHC molecules and prevent dissociation of the MHC complexes.

Binder	peptide exchange yield
FLLGSEIKL [peptide FLLGSEIKL (SEQ ID NO 53)]	50 to 75%
ALLNGEYLLAA [peptide ALLNGEYLLAA (SEQ ID NO 54)]	50 to 75%
VLFTDEGVPKFL [peptide VLFTDEGVPKFL (SEQ ID NO 56)]	20 to 50%
NLLEKENYL [peptide NLLEKENYL (SEQ ID NO 57)]	50 to 75%
AMADKMDMSL [peptide AMADKMDMSL (SEQ ID NO 58)]	20 to 50%
LLTDNVVKL [peptide LLTDNVVKL (SEQ ID NO 59)]	50 to 75%
VLDEDEPRFL [peptide VLDEDEPRFL (SEQ ID NO 60)]	20 to 50%
KLLKLFQGV [peptide KLLKLFQGV (SEQ ID NO 61)]	50 to 75%
YLAPENGYL [peptide YLAPENGYL (SEQ ID NO 62)]	20 to 50%
FLAELPGSLSL [peptide FLAELPGSLSL (SEQ ID NO 6)]	50 to 75%
KLFSILSTV [peptide KLFSILSTV (SEQ ID NO 63)]	20 to 50%
KTLGKLWRL [peptide KTLGKLWRL (SEQ ID NO 64)]	20 to 50%
GLDDGPDFL [peptide GLDDGPDFL (SEQ ID NO 66)]	20 to 50%
SLNDLEKDVMLL [peptide SLNDLEKDVMLL (SEQ ID NO 67)]	50 to 75%
SILQFVHMV [peptide SILQFVHMV (SEQ ID NO 68)]	50 to 75%
GMLNEAEGKAIKL [peptide GMLNEAEGKAIKL (SEQ ID NO 69)]	20 to 50%
MISELEVRL [peptide MISELEVRL (SEQ ID NO 70)]	50 to 75%
RLWTEIPTAI [peptide RLWTEIPTAI (SEQ ID NO 71)]	50 to 75%
YLLDYPNNLL [peptide YLLDYPNNLL (SEQ ID NO 72)]	50 to 75%
YLFDIAVSM [peptide YLFDIAVSM (SEQ ID NO 73)]	50 to 75%
YLTRHLAVL [peptide YLTRHLAVL (SEQ ID NO 7)]	20 to 50%
YLMGFLHAV [peptide YLMGFLHAV (SEQ ID NO 74)]	50 to 75%
EMIENIQSV [peptide EMIENIQSV (SEQ ID NO 75)]	20 to 50%
YLIGEKQHYL [peptide YLIGEKQHYL (SEQ ID NO 76)]	50 to 75%
SLLKRDFGA [peptide SLLKRDFGA (SEQ ID NO 77)]	20 to 50%
ALDPELLLL [peptide ALDPELLLL (SEQ ID NO 78)]	20 to 50%
SLAADQLLKL [peptide SLAADQLLKL (SEQ ID NO 79)]	20 to 50%

Binder	peptide exchange yield
QVDEVVDIMRV [peptide QVDEVVDIMRV (SEQ ID NO 80)]	20 to 50%
ALLSQQTHL [peptide ALLSQQTHL (SEQ ID NO 81)]	50 to 75%
QLYEEPDTKL [peptide QLYEEPDTKL (SEQ ID NO 82)]	20 to 50%
LTIEDGIFEV [peptide LTIEDGIFEV (SEQ ID NO 83)]	50 to 75%
ALMLQGVDLL [peptide ALMLQGVDLL (SEQ ID NO 8)]	50 to 75%
SMVEDITGLRL [peptide SMVEDITGLRL (SEQ ID NO 84)]	50 to 75%
ILHDINSDGVL [peptide ILHDINSDGVL (SEQ ID NO 85)]	20 to 50%
KVFPGKISV [peptide KVFPGKISV (SEQ ID NO 86)]	20 to 50%
LLFDAPDLRL [peptide LLFDAPDLRL (SEQ ID NO 87)]	50 to 75%
KLDIKVETV [peptide KLDIKVETV (SEQ ID NO 88)]	≥ 75%
SLIEYEFRV [peptide SLIEYEFRV (SEQ ID NO 89)]	50 to 75%
GLLKPGLNVVL [peptide GLLKPGLNVVL (SEQ ID NO 90)]	50 to 75%
TVDVATPSV [peptide TVDVATPSV (SEQ ID NO 91)]	50 to 75%
WIDDTSAFV [peptide WIDDTSAFV (SEQ ID NO 92)]	50 to 75%
SLQELRLLL [peptide SLQELRLLL (SEQ ID NO 93)]	≥ 75%
ILDDHLSRV [peptide ILDDHLSRV (SEQ ID NO 9)]	20 to 50%
KSMDIVLTV [peptide KSMDIVLTV (SEQ ID NO 94)]	50 to 75%
AILDAHIEV [peptide AILDAHIEV (SEQ ID NO 95)]	≥ 75%
KLYSRLVYV [peptide KLYSRLVYV (SEQ ID NO 96)]	20 to 50%
ALWWGVVTV [peptide ALWWGVVTV (SEQ ID NO 97)]	20 to 50%
AMNGKSFSV [peptide AMNGKSFSV (SEQ ID NO 98)]	20 to 50%
KLLEVDLDTV [peptide KLLEVDLDTV (SEQ ID NO 99)]	50 to 75%
SLDDFLATA [peptide SLDDFLATA (SEQ ID NO 100)]	50 to 75%
GLSEGHTFQV [peptide GLSEGHTFQV (SEQ ID NO 101)]	50 to 75%
KILVSLIEV [peptide KILVSLIEV (SEQ ID NO 102)]	50 to 75%
FLFGYPKRL [peptide FLFGYPKRL (SEQ ID NO 103)]	20 to 50%
